Experimental data: US20140303084A1 (Biogen, published 2014)
Square brackets hold non-standard residues; d marks the D form. Ends that are not written are not given here. NMeY = CN[C@@H](Cc1ccc(O)cc1)C(=O)O; NMeL = CN[C@@H](CC(C)C)C(=O)O

B1: SKAGRPISPDrRAAGKLTCLASYCWLFWTGIA (peptide)
peptide: SKAGRPISPD[dR]RAAGKLTCLASYCWLFWTGIA
modifications: not fully specified; printed as SKAGRPISPDrRAAGKLTCLASYCWLFWTGIA; cysteine pairing not given here
B2: SKQGRPISSDrRASGKSTCLASYCWLFWTGIA (peptide)
peptide: SKQGRPISSD[dR]RASGKSTCLASYCWLFWTGIA
modifications: not fully specified; printed as SKQGRPISSDrRASGKSTCLASYCWLFWTGIA; cysteine pairing not given here
B3: SKQGRPISPDrRAAGKLTCLASYCWLFWTG (peptide)
peptide: SKQGRPISPD[dR]RAAGKLTCLASYCWLFWTG
modifications: not fully specified; printed as SKQGRPISPDrRAAGKLTCLASYCWLFWTG; cysteine pairing not given here
B4: SKQGRPISADrRAAGKLTCLASYCWLFWTGIA (peptide)
peptide: SKQGRPISAD[dR]RAAGKLTCLASYCWLFWTGIA
modifications: not fully specified; printed as SKQGRPISADrRAAGKLTCLASYCWLFWTGIA; cysteine pairing not given here
B5: SKQGRPISSDrRAAGKLTCLASYCWLFWTGIA (peptide)
peptide: SKQGRPISSD[dR]RAAGKLTCLASYCWLFWTGIA
modifications: not fully specified; printed as SKQGRPISSDrRAAGKLTCLASYCWLFWTGIA; cysteine pairing not given here
B6: SAQGRPISPDrRAAGKLTCLASYCWLFWTGIA (peptide)
peptide: SAQGRPISPD[dR]RAAGKLTCLASYCWLFWTGIA
modifications: not fully specified; printed as SAQGRPISPDrRAAGKLTCLASYCWLFWTGIA; cysteine pairing not given here
B7: SKQGRPISSDrRASGKLTCLASYCWLFWTGIA (peptide)
peptide: SKQGRPISSD[dR]RASGKLTCLASYCWLFWTGIA
modifications: not fully specified; printed as SKQGRPISSDrRASGKLTCLASYCWLFWTGIA; cysteine pairing not given here
B8: SKQGRPISPDrRAAGKLTCLASYCWLFWT (peptide)
peptide: SKQGRPISPD[dR]RAAGKLTCLASYCWLFWT
modifications: not fully specified; printed as SKQGRPISPDrRAAGKLTCLASYCWLFWT; cysteine pairing not given here
B9: SKQGRPISPDrRAAGKLTCLaSYCWLFWTGIA (peptide)
peptide: SKQGRPISPD[dR]RAAGKLTCL[dA]SYCWLFWTGIA
modifications: not fully specified; printed as SKQGRPISPDrRAAGKLTCLaSYCWLFWTGIA; cysteine pairing not given here
B10: SKQGRPISPDrRAAGKLTCLASYCWLFW (peptide)
peptide: SKQGRPISPD[dR]RAAGKLTCLASYCWLFW
modifications: not fully specified; printed as SKQGRPISPDrRAAGKLTCLASYCWLFW; cysteine pairing not given here
B11: AKQGRPISPDrRAAGKLTCLASYCWLFWTGIA (peptide)
peptide: AKQGRPISPD[dR]RAAGKLTCLASYCWLFWTGIA
modifications: not fully specified; printed as AKQGRPISPDrRAAGKLTCLASYCWLFWTGIA; cysteine pairing not given here
B12: SKQGRPIAPDrRAAGKLTCLASYCWLFWTGIA (peptide)
peptide: SKQGRPIAPD[dR]RAAGKLTCLASYCWLFWTGIA
modifications: not fully specified; printed as SKQGRPIAPDrRAAGKLTCLASYCWLFWTGIA; cysteine pairing not given here
B13: SKQGRPISPArRAAGKLTCLASYCWLFWTGIA (peptide)
peptide: SKQGRPISPA[dR]RAAGKLTCLASYCWLFWTGIA
modifications: not fully specified; printed as SKQGRPISPArRAAGKLTCLASYCWLFWTGIA; cysteine pairing not given here
B14: SKQARPISPDrRAAGKLTCLASYCWLFWTGIA (peptide)
peptide: SKQARPISPD[dR]RAAGKLTCLASYCWLFWTGIA
modifications: not fully specified; printed as SKQARPISPDrRAAGKLTCLASYCWLFWTGIA; cysteine pairing not given here
B15: SKQGAPISPDrRAAGKLTCLASYCWLFWTGIA (peptide)
peptide: SKQGAPISPD[dR]RAAGKLTCLASYCWLFWTGIA
modifications: not fully specified; printed as SKQGAPISPDrRAAGKLTCLASYCWLFWTGIA; cysteine pairing not given here
B16: SKQGRAISPDrRAAGKLTCLASYCWLFWTGIA (peptide)
peptide: SKQGRAISPD[dR]RAAGKLTCLASYCWLFWTGIA
modifications: not fully specified; printed as SKQGRAISPDrRAAGKLTCLASYCWLFWTGIA; cysteine pairing not given here
B17: SKQGRPISPDrRAAGKLTCLASYCWLFWTGI (peptide)
peptide: SKQGRPISPD[dR]RAAGKLTCLASYCWLFWTGI
modifications: not fully specified; printed as SKQGRPISPDrRAAGKLTCLASYCWLFWTGI; cysteine pairing not given here
B18: SKQGRPISSDrRAAGKSTCLASYCWLFWTGIA (peptide)
peptide: SKQGRPISSD[dR]RAAGKSTCLASYCWLFWTGIA
modifications: not fully specified; printed as SKQGRPISSDrRAAGKSTCLASYCWLFWTGIA; cysteine pairing not given here

target: human Factor IXa (human, UniProt P00740 47-191; P00740 227-461); assay: cell-based or functional assay

Row | Binder | EC50 [µM], FXa generation assay [µM] | EC50 [µM], FXa generation assay with hFIXa [µM]
1 | B1 | < 0.5 | –
2 | B2 | < 0.5 | –
3 | PRTTANRRSSRRAPAKLTCLASYCWLFWTGIA [PRTTANRRSS RRAPA KLTCLASYCWLFWTGIA] | < 0.5 | –
4 | RRAPGKLTCLASYCWLFYTGIAHGHPMEHRKS [RRAPGKLTCLASYCWLF YTGIA HGHPMEHRKS] | > 1 | –
5 | B3 | < 0.5 | –
6 | RRAPGKLTCLASYCWLFLTGWARVPLPPRPHP [RRAPGKLTCLASYCWLF LTGWA RVPLPPRPHP] | > 1 | –
7 | RRAPGKLTCLASYCWLFATGVTFPQIWAIPSP [RRAPGKLTCLASYCWLF ATGVT FPQIWAIPSP] | > 1 | –
8 | LYTAWIKCQFARLPGCALSGRW-NH2 (cysteine pairing not given here) [compound C] | – | > 25
9 | RRAPGKLTCLASYCWLFWAGIAPHRPLKERVR [RRAPGKLTCLASYCWLF WAGIA PHRPLKERVR] | > 1 | –
10 | B4 | < 0.5 | –
11 | B5 | < 0.5 | –
12 | B6 | < 0.5 | –
13 | B7 | < 0.5 | –
14 | AQWVGRGQWAIRAPGKLTCLASYCWLFWTGIA [AQWVGRGQWA IRAPG KLTCLASYCWLFWTGIA] | > 1 | –
15 | RPRSSAHDRPRRAAGKLTCLASYCWLFWTGIA [RPRSSAHDRP RRAAG KLTCLASYCWLFWTGIA] | > 1 | –
16 | SKQGRPISPD[dR]RAAGKLTCLAS[NMeY]CWLFWTGIA (not fully specified; cysteine pairing not given here) [SKQGRPISPDrRAAGKLTCLAS-NMeTyr-CWLFWTGIA] | > 10 | –
17 | PQTRDPSSRDRRAPGKLTCLASYCWLFWTGIA [PQTRDPSSRD RRAPG KLTCLASYCWLFWTGIA] | < 0.5 | –
18 | GRAMAAEPWPRQAPGKLTCLASYCWLFWTGIA [GRAMAAEPWP RQAPG KLTCLASYCWLFWTGIA] | < 0.5 | –
19 | RRAPGKLTCLASYCWLFWTAVGGQPYMLLAWR [RRAPGKLTCLASYCWLF WTAVG GQPYMLLAWR] | < 0.5 | –
20 | B8 | < 0.5 | –
21 | B9 | > 10 | –

Row | Binder | EC50 [µM], FXa generation assay [µM] | EC50 [µM], FXa generation assay with hFIXa [µM]
22 | B10 | < 0.5 | –
23 | SKQGRPISPD[dR]RAAGKLTCLASYCW[NMeL]FWTGIA (not fully specified; cysteine pairing not given here) [SKQGRPISPDrRAAGKLTCLASYCW-NMeLeu-FWTGIA] | > 10 | –
24 | B11 | < 0.5 | –
25 | B12 | < 0.5 | –
26 | RRAPGKLTCLASYCWLFWAVIAPPKVKGTRQS [RRAPGKLTCLASYCWLF WAVIA PPKVKGTRQS] | > 1 | –
27 | B13 | < 0.5 | –
28 | PNLLRVRTSEVRNPGKLTCLASYCWLFWTGIA [PNLLRVRTSE VRNPG KLTCLASYCWLFWTGIA] | < 0.5 | –
29 | TALSRGLVTMRTAPDKLTCLASYCWLFWTGIA [TALSRGLVTM RTAPD KLTCLASYCWLFWTGIA] | < 0.5 | –
30 | RRAPGKLTCLASYCWLFVTGTAHAPRVAPAPA [RRAPGKLTCLASYCWLF VTGTA HAPRVAPAPA] | > 1 | –
31 | B14 | > 1 | –
32 | NGALGFRSVVPRAAGKLTCLASYCWLFWTGIA [NGALGFRSVV PRAAG KLTCLASYCWLFWTGIA] | < 0.5 | –
33 | B15 | < 0.5 | –
34 | RRAPGKLTCLASYCWLFWTGIARWPSHRSGPS (not fully specified (C-terminus); cysteine pairing not given here) [RRAPGKLTCLASYCWLF WTGIA RWPSHRSGPS] | > 1 | –
35 | B16 | > 1 | –
36 | SLISMTNPSGRRVPGKLTCLASYCWLFWTGIA [SLISMTNPSG RRVPG KLTCLASYCWLFWTGIA] | < 0.5 | –
37 | B17 | < 0.5 | –
38 | RRAPGKLTCLASYCWLFWTTYASYATKPADTT [RRAPGKLTCLASYCWLF WTTYA SYATKPADTT] | < 0.5 | –
39 | PARGKERELMRRAPGKLTCLASYCWLFWTGIA [PARGKERELM RRAPG KLTCLASYCWLFWTGIA] | > 1 | –
40 | RRAPGKLTCLASYCWLFWSGIAPQPPNMRPSV [RRAPGKLTCLASYCWLF WSGIA PQPPNMRPSV] | < 0.5 | –
41 | B18 | < 0.5 | –
